Test [1] addresses T1, AFP158/HLA-A*02:01 complex (human).
T1 construct: flowed as analyte in SPR
Description: SPR, crude scFv captured, pMHC analyte.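 Note: pMHC analyte injected at three concentrations, association phase of one hundred seconds, then running buffer for dissociation, rates fitted from both curves, KD derived from the rates.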
Description: The experiment was carried out as follows. The crude scFv protein were captured onto the sensorchip. Different concentrations (320, 160, 40 nM) of AFP158/HLA-A*02:01 complex flowed over the sensorchip surface, and were allowed to bind the antibody fragment for 100 s followed by injection of the running buffer to allow dissociation of the complex. On-rate (kd) and off-rate (kd) were calculated based on association and dissociation curve, and were used to estimate the equilibrium dissociation constant (KD).
The crude scFv muteins were then subjected to SPR affinity measurement by the method mentioned above.

The target of test [2] is T1, AFP158/HLA-A*02:01 complex. Description: SPR, fold vs AS170036 VL1VH1. (In general: SPR reads the build-up and loss of mass on a sensor chip optically.)
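Throughout, for Affinity increase: crude scFv muteins immobilised on a sensor chip, peptide–MHC complex passed over at several concentrations, binding then buffer-driven dissociation, KD estimated from on- and off-rates.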

B1: AS170036 VL1VH1-57M108A (scFv)
scFv: QSALTQPRSVSGSPGQSVTISCAGTSSDVGSENYVSWYQQHPGKAPKLMIYQVNKRASGVPDRFSGSKSGNTASLTISGLQAEDEADYYCASYRSSDHNIVFGGGTKLTVLGGGGSGGGGSGGGGSEVQLVESGGGLVQPGGSLRLSCAASGFTFSSYAMSWVRQAPGKGLEWVSTINSGTGMPYYADSVKGRFTISRDNSKNTLYLQMNSLRAEDTAVYYCAKNFFDGSWFLAPPAMDYWGQGTLVTVSSHHHHHH
notes: also called 28-AS170036 VL1VH1-57M108A
As to B1, in test [1], the Kd (in general, a measure of binding affinity in units of concentration) worked out at 17 nM; the dissociation rate constant (koff) – broadly, the rate constant with which the complex falls apart – turned out to be 0.004 s⁻¹; the kon – broadly, the second-order rate constant of association – is 240000 M⁻¹ s⁻¹. This molecule also registered an Affinity increase in test [2] of 13.6 fold.

B2: AS170036 VL1VH1-98Q108A (scFv)
scFv: QSALTQPRSVSGSPGQSVTISCAGTSSDVGSENYVSWYQQHPGKAPKLMIYQVNKRASGVPDRFSGSKSGNTASLTISGLQAEDEADYYCASYRSSDQNIVFGGGTKLTVLGGGGSGGGGSGGGGSEVQLVESGGGLVQPGGSLRLSCAASGFTFSSYAMSWVRQAPGKGLEWVSTINSGTGSPYYADSVKGRFTISRDNSKNTLYLQMNSLRAEDTAVYYCAKNFFDGSWFLAPPAMDYWGQGTLVTVSSHHHHHH
notes: also called 37-AS170036 VL1VH1-98Q108A
In test [1], B2 yielded a Kd of 11 nM, a koff of 0.0028 s⁻¹ and an association rate constant (kon) of 250000 M⁻¹ s⁻¹. Moreover, in test [2], the Affinity increase was 20.5 fold.

B3: AS170036 VL1VH1-57M108D (scFv)
scFv: QSALTQPRSVSGSPGQSVTISCAGTSSDVGSENYVSWYQQHPGKAPKLMIYQVNKRASGVPDRFSGSKSGNTASLTISGLQAEDEADYYCASYRSSDHNIVFGGGTKLTVLGGGGSGGGGSGGGGSEVQLVESGGGLVQPGGSLRLSCAASGFTFSSYAMSWVRQAPGKGLEWVSTINSGTGMPYYADSVKGRFTISRDNSKNTLYLQMNSLRAEDTAVYYCAKNFFDGSWFLDPPAMDYWGQGTLVTVSSHHHHHH
notes: also called 29-AS170036 VL1VH1-57M108D
In test [1], B3 came in with a Kd of 19 nM, a dissociation rate constant (koff) of 0.0055 s⁻¹ and a kon of 290000 M⁻¹ s⁻¹. The molecule further registered an Affinity increase in test [2] of 11.8 fold.

B4: AS170036 VL1VH1-98F108D (scFv)
scFv: QSALTQPRSVSGSPGQSVTISCAGTSSDVGSENYVSWYQQHPGKAPKLMIYQVNKRASGVPDRFSGSKSGNTASLTISGLQAEDEADYYCASYRSSDFNIVFGGGTKLTVLGGGGSGGGGSGGGGSEVQLVESGGGLVQPGGSLRLSCAASGFTFSSYAMSWVRQAPGKGLEWVSTINSGTGSPYYADSVKGRFTISRDNSKNTLYLQMNSLRAEDTAVYYCAKNFFDGSWFLDPPAMDYWGQGTLVTVSSHHHHHH
notes: also called 32-AS170036 VL1VH1-98F108D
In test [1], B4 returned a Kd of 13 nM, a koff of 0.0057 s⁻¹ and a kon of 450000 M⁻¹ s⁻¹. In test [2], this molecule showed an Affinity increase of 17.6 fold.

B5: AS170036 VL1VH1-98I108A (scFv)
scFv: QSALTQPRSVSGSPGQSVTISCAGTSSDVGSENYVSWYQQHPGKAPKLMIYQVNKRASGVPDRFSGSKSGNTASLTISGLQAEDEADYYCASYRSSDINIVFGGGTKLTVLGGGGSGGGGSGGGGSEVQLVESGGGLVQPGGSLRLSCAASGFTFSSYAMSWVRQAPGKGLEWVSTINSGTGSPYYADSVKGRFTISRDNSKNTLYLQMNSLRAEDTAVYYCAKNFFDGSWFLAPPAMDYWGQGTLVTVSSHHHHHH
notes: also called 34-AS170036 VL1VH1-98I108A; 34-AS170036 VL1VH1-98I08A
For the molecule B5, in test [1], the Kd was found to be 11 nM, the koff worked out at 0.0031 s⁻¹ and the kon amounted to 280000 M⁻¹ s⁻¹. In test [2], the Affinity increase was found to be 20.1 fold.

B6: AS170036 VL1VH1-57M108S (scFv)
scFv: QSALTQPRSVSGSPGQSVTISCAGTSSDVGSENYVSWYQQHPGKAPKLMIYQVNKRASGVPDRFSGSKSGNTASLTISGLQAEDEADYYCASYRSSDHNIVFGGGTKLTVLGGGGSGGGGSGGGGSEVQLVESGGGLVQPGGSLRLSCAASGFTFSSYAMSWVRQAPGKGLEWVSTINSGTGMPYYADSVKGRFTISRDNSKNTLYLQMNSLRAEDTAVYYCAKNFFDGSWFLSPPAMDYWGQGTLVTVSSHHHHHH
notes: also called 30-AS170036 VL1VH1-57M108S
Regarding B6, in test [1], binding was characterised by a dissociation constant (Kd) of 33 nM, the off-rate (koff) worked out at 0.0067 s⁻¹ and the association rate constant (kon) was 200000 M⁻¹ s⁻¹. In test [2], the Affinity increase was found to be 6.8 fold.

B7: AS170036 VL1VH1-98Q108D (scFv)
scFv: QSALTQPRSVSGSPGQSVTISCAGTSSDVGSENYVSWYQQHPGKAPKLMIYQVNKRASGVPDRFSGSKSGNTASLTISGLQAEDEADYYCASYRSSDQNIVFGGGTKLTVLGGGGSGGGGSGGGGSEVQLVESGGGLVQPGGSLRLSCAASGFTFSSYAMSWVRQAPGKGLEWVSTINSGTGSPYYADSVKGRFTISRDNSKNTLYLQMNSLRAEDTAVYYCAKNFFDGSWFLDPPAMDYWGQGTLVTVSSHHHHHH
notes: also called 38-AS170036 VL1VH1-98Q108D
In test [1], B7 gave a Kd of 14 nM, a koff of 0.0045 s⁻¹ and an on-rate constant (kon) of 330000 M⁻¹ s⁻¹. In test [2], the Affinity increase amounted to 16.3 fold.

B8: AS170036 VL1VH1-98F108A (scFv)
scFv: QSALTQPRSVSGSPGQSVTISCAGTSSDVGSENYVSWYQQHPGKAPKLMIYQVNKRASGVPDRFSGSKSGNTASLTISGLQAEDEADYYCASYRSSDFNIVFGGGTKLTVLGGGGSGGGGSGGGGSEVQLVESGGGLVQPGGSLRLSCAASGFTFSSYAMSWVRQAPGKGLEWVSTINSGTGSPYYADSVKGRFTISRDNSKNTLYLQMNSLRAEDTAVYYCAKNFFDGSWFLAPPAMDYWGQGTLVTVSSHHHHHH
notes: also called 31-AS170036 VL1VH1-98F108A
With B8, in test [1], binding was characterised by a dissociation constant (Kd) of 12 nM, the koff was 0.0039 s⁻¹ and the kon is 330000 M⁻¹ s⁻¹. The molecule also registered an Affinity increase in test [2] of 19.1 fold.

B9: AS170036 VL1VH1-98I108D (scFv)
scFv: QSALTQPRSVSGSPGQSVTISCAGTSSDVGSENYVSWYQQHPGKAPKLMIYQVNKRASGVPDRFSGSKSGNTASLTISGLQAEDEADYYCASYRSSDINIVFGGGTKLTVLGGGGSGGGGSGGGGSEVQLVESGGGLVQPGGSLRLSCAASGFTFSSYAMSWVRQAPGKGLEWVSTINSGTGSPYYADSVKGRFTISRDNSKNTLYLQMNSLRAEDTAVYYCAKNFFDGSWFLDPPAMDYWGQGTLVTVSSHHHHHH
notes: also called 35-AS170036 VL1VH1-98I108D
Regarding B9, in test [1], binding was characterised by a dissociation constant (Kd) of 14 nM, the koff was found to be 0.0053 s⁻¹ and the kon came to 370000 M⁻¹ s⁻¹. This molecule displayed an Affinity increase in test [2] of 15.8 fold.

B10: AS170036 VL1VH1-98F108S (scFv)
scFv: QSALTQPRSVSGSPGQSVTISCAGTSSDVGSENYVSWYQQHPGKAPKLMIYQVNKRASGVPDRFSGSKSGNTASLTISGLQAEDEADYYCASYRSSDFNIVFGGGTKLTVLGGGGSGGGGSGGGGSEVQLVESGGGLVQPGGSLRLSCAASGFTFSSYAMSWVRQAPGKGLEWVSTINSGTGSPYYADSVKGRFTISRDNSKNTLYLQMNSLRAEDTAVYYCAKNFFDGSWFLSPPAMDYWGQGTLVTVSSHHHHHH
notes: also called 33-AS170036 VL1VH1-98F108S
In test [1], B10 showed a Kd of 26 nM, a koff of 0.0086 s⁻¹ and a kon of 330000 M⁻¹ s⁻¹. Moreover, in test [2], the Affinity increase was 8.6 fold.

B11: AS170036 VL1VH1-98I108S (scFv)
scFv: QSALTQPRSVSGSPGQSVTISCAGTSSDVGSENYVSWYQQHPGKAPKLMIYQVNKRASGVPDRFSGSKSGNTASLTISGLQAEDEADYYCASYRSSDINIVFGGGTKLTVLGGGGSGGGGSGGGGSEVQLVESGGGLVQPGGSLRLSCAASGFTFSSYAMSWVRQAPGKGLEWVSTINSGTGSPYYADSVKGRFTISRDNSKNTLYLQMNSLRAEDTAVYYCAKNFFDGSWFLSPPAMDYWGQGTLVTVSSHHHHHH
notes: also called 36-AS170036 VL1VH1-98I108S
Consider B11, for which, in test [1], binding was put at a Kd of 29 nM, the koff was found to be 0.007 s⁻¹ and the kon was determined as 240000 M⁻¹ s⁻¹. Moreover, the Affinity increase in test [2] was found to be 7.7 fold.

Values taken from patent US20240279318A1 (NANJING LEGEND BIOTECH, published 2024).
